No end group written: not given here.
These sequences were tested against Abl(Y253F)(h) (Homo sapiens, UniProt P00519, Y253F) (assay: Kinase Profiling Assay). Details: peptide 100 μM.
Format: biochemical
How it was run: (§1)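 Kinase inhibition by MK2 inhibitory peptides was profiled radiometrically, with substrate phosphorylation from labeled ATP read by scintillation after capture on a charged filter. Values are relative to 100% activity and measured in duplicate.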

Point of comparison: KAFAKLAARLYRKALARQLGVAA [MMI-0400], “% activity” value 78%. Against it:
- FAKLAARLYRKALARQLGVAA [MMI-0300] — higher, 86%
- HRRIKAWLKKIKALARQLGVAA (Mammal) [MMI-0500] — lower, 29%

The sequences below were run against BTK(h) (Homo sapiens, UniProt Q06187) (assay: Kinase Profiling Assay). Details: peptide 100 μM.
Format: biochemical
How it was run: as §1

Point of comparison: KAFAKLAARLYRKALARQLGVAA [MMI-0400], “% activity” value 94%. Against it:
- HRRIKAWLKKIKALARQLGVAA (Mammal) [MMI-0500] — lower, 18%
- YARAAARQARAKALNRQLGVA (Mammal) [MMI-0200] — higher, 100%

The sequences below were run against CK2(h) (Homo sapiens, UniProt P68400) (assay: Kinase Profiling Assay). Details: peptide 100 μM.
Format: biochemical
How it was run: as §1

Sequence of CK2(h) (P68400 whole entry): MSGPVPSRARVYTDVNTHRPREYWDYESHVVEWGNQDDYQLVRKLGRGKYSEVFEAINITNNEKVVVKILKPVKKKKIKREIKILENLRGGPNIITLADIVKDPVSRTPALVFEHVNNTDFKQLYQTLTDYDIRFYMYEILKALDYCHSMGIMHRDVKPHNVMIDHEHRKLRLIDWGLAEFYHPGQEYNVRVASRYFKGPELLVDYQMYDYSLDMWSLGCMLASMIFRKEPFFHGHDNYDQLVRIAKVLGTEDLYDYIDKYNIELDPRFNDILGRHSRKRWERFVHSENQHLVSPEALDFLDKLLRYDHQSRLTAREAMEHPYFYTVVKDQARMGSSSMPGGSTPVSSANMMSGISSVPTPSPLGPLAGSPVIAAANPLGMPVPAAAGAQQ
Sequence of CK2(h) (P67870 whole entry partner): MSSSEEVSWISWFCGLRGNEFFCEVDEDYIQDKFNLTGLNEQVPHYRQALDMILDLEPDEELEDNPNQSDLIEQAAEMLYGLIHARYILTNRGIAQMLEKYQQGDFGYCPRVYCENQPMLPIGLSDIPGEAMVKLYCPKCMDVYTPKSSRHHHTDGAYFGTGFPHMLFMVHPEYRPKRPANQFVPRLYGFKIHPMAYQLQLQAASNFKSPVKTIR

Point of comparison: “YARAAARQARAKALNRQLGVA (Mammal) [MMI-0200]”, “% activity” value 83%. Against it:
- FAKLAARLYRKALARQLGVAA [MMI-0300] — higher, 90%
- HRRIKAWLKKIKALARQLGVAA (Mammal) [MMI-0500] — higher, 93%
- KAFAKLAARLYRKALARQLGVAA [MMI-0400] — higher, 101%

What follows are sequences tested against T1, DYRK2(h) (Homo sapiens, UniProt Q92630) (assay: Kinase Profiling Assay). Details: peptide 100 μM.
T1 sequence (Q92630 1-601): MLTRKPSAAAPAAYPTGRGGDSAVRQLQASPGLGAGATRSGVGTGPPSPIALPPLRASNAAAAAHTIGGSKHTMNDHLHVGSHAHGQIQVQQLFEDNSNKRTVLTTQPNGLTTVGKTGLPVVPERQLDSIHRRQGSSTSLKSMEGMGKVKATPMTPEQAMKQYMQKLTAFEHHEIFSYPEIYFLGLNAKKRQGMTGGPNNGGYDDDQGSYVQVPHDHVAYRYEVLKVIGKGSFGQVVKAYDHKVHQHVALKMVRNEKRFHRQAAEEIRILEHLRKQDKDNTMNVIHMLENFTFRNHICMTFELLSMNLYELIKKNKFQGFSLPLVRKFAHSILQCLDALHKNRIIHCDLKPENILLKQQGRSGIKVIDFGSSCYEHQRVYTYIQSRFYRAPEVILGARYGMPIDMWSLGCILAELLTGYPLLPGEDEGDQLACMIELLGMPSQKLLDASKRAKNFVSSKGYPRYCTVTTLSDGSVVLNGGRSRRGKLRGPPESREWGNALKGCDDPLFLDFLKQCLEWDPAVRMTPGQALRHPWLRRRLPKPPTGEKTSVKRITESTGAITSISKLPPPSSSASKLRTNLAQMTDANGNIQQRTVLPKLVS
Format: biochemical
How it was run: as §1

Point of comparison: “HRRIKAWLKKIKALARQLGVAA (Mammal) [MMI-0500]”, “% activity” value 127%. Against it:
- FAKLAARLYRKALARQLGVAA [MMI-0300] — higher, 155%
- KAFAKLAARLYRKALARQLGVAA [MMI-0400] — higher, 195%
- YARAAARQARAKALNRQLGVA (Mammal) [MMI-0200] — higher, 142%

Each sequence was assayed against EGFR(h) (Homo sapiens, UniProt P00533) (assay: Kinase Profiling Assay). Details: peptide 100 μM.
Format: biochemical
How it was run: as §1

Point of comparison: “YARAAARQARAKALNRQLGVA (Mammal) [MMI-0200]”, “% activity” value 83%. Against it:
- FAKLAARLYRKALARQLGVAA [MMI-0300] — lower, 21%
- HRRIKAWLKKIKALARQLGVAA (Mammal) [MMI-0500] — lower, -1%
- KAFAKLAARLYRKALARQLGVAA [MMI-0400] — lower, 16%

Each sequence was assayed against T2, JNK3(h) (Homo sapiens, UniProt P53779) (assay: Kinase Profiling Assay). Details: peptide 100 μM.
T2 construct: purchased Millipore
Format: biochemical
How it was run: as §1

T2 sequence (P53779 whole entry): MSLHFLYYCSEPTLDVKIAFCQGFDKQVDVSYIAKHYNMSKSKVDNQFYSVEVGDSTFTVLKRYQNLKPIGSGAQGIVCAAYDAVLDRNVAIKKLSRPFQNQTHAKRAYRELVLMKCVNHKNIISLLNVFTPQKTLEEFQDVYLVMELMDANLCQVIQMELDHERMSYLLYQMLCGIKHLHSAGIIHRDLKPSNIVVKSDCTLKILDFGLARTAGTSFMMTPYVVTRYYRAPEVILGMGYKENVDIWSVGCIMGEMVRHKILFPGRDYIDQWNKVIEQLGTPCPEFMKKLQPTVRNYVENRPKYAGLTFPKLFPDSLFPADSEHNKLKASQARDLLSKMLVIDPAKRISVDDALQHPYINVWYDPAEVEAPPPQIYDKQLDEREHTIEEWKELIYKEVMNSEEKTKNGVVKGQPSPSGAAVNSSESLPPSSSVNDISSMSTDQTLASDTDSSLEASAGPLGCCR

Point of comparison: KAFAKLAARLYRKALARQLGVAA [MMI-0400], “% activity” value 70%. Against it:
- FAKLAARLYRKALARQLGVAA [MMI-0300] — higher, 89%
- HRRIKAWLKKIKALARQLGVAA (Mammal) [MMI-0500] — higher, 171%
- YARAAARQARAKALNRQLGVA (Mammal) [MMI-0200] — higher, 90%

The sequences below were run against T3, MINK(h) (Homo sapiens, UniProt Q8N4C8) (assay: Kinase Profiling Assay). Details: peptide 100 μM.
T3 construct: purchased Millipore
Format: biochemical
How it was run: as §1

T3 sequence (Q8N4C8 whole entry): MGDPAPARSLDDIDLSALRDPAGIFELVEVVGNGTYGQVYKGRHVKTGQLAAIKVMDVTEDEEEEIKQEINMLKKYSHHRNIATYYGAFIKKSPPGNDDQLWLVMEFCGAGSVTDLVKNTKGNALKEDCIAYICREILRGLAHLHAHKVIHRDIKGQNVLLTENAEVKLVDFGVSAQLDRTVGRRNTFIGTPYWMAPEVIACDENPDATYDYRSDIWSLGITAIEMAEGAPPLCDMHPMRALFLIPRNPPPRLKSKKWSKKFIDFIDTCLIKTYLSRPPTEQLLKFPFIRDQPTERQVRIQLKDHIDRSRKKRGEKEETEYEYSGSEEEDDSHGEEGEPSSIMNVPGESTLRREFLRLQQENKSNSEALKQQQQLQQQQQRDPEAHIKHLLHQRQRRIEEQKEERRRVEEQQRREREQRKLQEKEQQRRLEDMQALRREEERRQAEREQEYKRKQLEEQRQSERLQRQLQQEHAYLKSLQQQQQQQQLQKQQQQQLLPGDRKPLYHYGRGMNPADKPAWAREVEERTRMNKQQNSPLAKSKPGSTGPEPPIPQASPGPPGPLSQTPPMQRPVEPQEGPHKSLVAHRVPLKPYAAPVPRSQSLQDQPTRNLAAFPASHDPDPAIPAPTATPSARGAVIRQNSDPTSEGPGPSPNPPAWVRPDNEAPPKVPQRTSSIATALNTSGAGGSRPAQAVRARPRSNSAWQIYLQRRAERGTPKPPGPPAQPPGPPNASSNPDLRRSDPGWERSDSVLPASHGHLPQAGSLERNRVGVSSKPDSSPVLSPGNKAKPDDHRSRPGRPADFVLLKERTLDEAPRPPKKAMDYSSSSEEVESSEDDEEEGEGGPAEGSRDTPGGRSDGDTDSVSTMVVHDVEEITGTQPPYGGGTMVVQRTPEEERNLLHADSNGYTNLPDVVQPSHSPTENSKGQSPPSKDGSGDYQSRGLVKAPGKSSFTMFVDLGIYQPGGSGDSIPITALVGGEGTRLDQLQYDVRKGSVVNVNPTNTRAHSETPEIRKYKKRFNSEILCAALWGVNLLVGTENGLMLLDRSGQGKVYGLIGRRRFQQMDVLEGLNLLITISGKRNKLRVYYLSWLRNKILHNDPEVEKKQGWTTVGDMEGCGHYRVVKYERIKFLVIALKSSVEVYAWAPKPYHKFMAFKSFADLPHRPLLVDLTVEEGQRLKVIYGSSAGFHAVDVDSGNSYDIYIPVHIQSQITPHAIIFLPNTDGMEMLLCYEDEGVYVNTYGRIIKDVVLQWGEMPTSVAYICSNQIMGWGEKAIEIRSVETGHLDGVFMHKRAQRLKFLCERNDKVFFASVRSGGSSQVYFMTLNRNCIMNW

Point of comparison: KAFAKLAARLYRKALARQLGVAA [MMI-0400], “% activity” value 52%. Against it:
- FAKLAARLYRKALARQLGVAA [MMI-0300] — lower, 48%
- HRRIKAWLKKIKALARQLGVAA (Mammal) [MMI-0500] — lower, 5%
- YARAAARQARAKALARQLGVAA [MMI-0100] — higher, 96%

Each sequence was assayed against T4, MRCKβ(h) (Homo sapiens, UniProt Q9Y5S2) (assay: Kinase Profiling Assay). Details: peptide 100 μM.
T4 construct: purchased Millipore
Format: biochemical
How it was run: as §1

Point of comparison: “HRRIKAWLKKIKALARQLGVAA (Mammal) [MMI-0500]”, “% activity” value -10%. Against it:
- FAKLAARLYRKALARQLGVAA [MMI-0300] — higher, 83%
- KAFAKLAARLYRKALARQLGVAA [MMI-0400] — higher, 71%

The sequences below were run against T5, MSK1(h) (Homo sapiens, UniProt O75582) (assay: Kinase Profiling Assay). Details: peptide 100 μM.
T5 construct: purchased Millipore
Format: biochemical
How it was run: as §1

Point of comparison: KAFAKLAARLYRKALARQLGVAA [MMI-0400], “% activity” value 28%. Against it:
- FAKLAARLYRKALARQLGVAA [MMI-0300] — higher, 32%
- HRRIKAWLKKIKALARQLGVAA (Mammal) [MMI-0500] — lower, 8%
- YARAAARQARAKALNRQLGVA (Mammal) [MMI-0200] — higher, 50%

The sequences below were run against T6, PDK1(h) (Homo sapiens, UniProt O15530) (assay: Kinase Profiling Assay). Details: peptide 100 μM.
T6 sequence (O15530 1-556): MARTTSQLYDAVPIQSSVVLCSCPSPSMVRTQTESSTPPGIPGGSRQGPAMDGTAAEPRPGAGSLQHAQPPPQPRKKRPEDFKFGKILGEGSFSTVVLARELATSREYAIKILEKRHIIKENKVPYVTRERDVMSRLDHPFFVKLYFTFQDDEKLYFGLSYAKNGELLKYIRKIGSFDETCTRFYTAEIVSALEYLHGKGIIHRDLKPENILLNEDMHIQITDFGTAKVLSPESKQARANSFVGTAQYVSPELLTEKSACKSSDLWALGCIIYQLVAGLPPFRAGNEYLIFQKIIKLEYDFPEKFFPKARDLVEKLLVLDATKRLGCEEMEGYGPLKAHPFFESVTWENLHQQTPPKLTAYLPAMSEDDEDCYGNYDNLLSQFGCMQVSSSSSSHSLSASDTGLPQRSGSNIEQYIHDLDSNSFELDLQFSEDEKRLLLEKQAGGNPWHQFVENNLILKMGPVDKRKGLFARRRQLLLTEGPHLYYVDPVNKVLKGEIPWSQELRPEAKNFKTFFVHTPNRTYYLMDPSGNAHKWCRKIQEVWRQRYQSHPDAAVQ
Format: biochemical
How it was run: as §1

Point of comparison: “HRRIKAWLKKIKALARQLGVAA (Mammal) [MMI-0500]”, “% activity” value 178%. Against it:
- FAKLAARLYRKALARQLGVAA [MMI-0300] — lower, 135%
- KAFAKLAARLYRKALARQLGVAA [MMI-0400] — lower, 159%
- YARAAARQARAKALNRQLGVA (Mammal) [MMI-0200] — lower, 143%

What follows are sequences tested against T7, SAPK2a(h) (Homo sapiens, UniProt Q16539) (assay: Kinase Profiling Assay). Details: peptide 100 μM.
T7 construct: purchased Millipore
Format: biochemical
How it was run: as §1

T7 sequence (Q16539 whole entry): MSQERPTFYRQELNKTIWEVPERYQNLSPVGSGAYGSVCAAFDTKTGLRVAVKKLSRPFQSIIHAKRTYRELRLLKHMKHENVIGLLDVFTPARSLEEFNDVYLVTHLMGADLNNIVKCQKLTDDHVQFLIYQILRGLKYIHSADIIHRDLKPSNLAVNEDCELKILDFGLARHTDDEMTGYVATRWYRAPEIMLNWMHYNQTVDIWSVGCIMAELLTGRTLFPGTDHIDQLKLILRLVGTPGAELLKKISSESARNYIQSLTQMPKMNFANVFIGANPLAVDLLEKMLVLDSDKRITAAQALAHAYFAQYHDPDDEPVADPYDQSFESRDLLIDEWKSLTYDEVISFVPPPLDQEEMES

Point of comparison: “HRRIKAWLKKIKALARQLGVAA (Mammal) [MMI-0500]”, “% activity” value 52%. Against it:
- FAKLAARLYRKALARQLGVAA [MMI-0300] — higher, 90%
- KAFAKLAARLYRKALARQLGVAA [MMI-0400] — higher, 85%

These sequences were tested against T8, SAPK4(h) (Homo sapiens, UniProt O15264) (assay: Kinase Profiling Assay). Details: peptide 100 μM.
T8 construct: purchased Millipore
T8 sequence (O15264 1-365): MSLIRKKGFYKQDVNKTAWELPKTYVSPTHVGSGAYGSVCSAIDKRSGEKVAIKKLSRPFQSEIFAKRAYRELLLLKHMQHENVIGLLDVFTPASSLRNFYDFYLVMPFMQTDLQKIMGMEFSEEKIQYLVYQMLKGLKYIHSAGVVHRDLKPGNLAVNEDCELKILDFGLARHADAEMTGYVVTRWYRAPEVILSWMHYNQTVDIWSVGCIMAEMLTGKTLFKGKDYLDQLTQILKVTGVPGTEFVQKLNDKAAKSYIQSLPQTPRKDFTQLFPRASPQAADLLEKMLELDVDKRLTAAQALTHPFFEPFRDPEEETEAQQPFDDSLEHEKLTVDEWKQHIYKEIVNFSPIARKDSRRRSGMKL
Format: biochemical
How it was run: as §1

Point of comparison: KAFAKLAARLYRKALARQLGVAA [MMI-0400], “% activity” value 91%. Against it:
- FAKLAARLYRKALARQLGVAA [MMI-0300] — higher, 96%
- HRRIKAWLKKIKALARQLGVAA (Mammal) [MMI-0500] — lower, 48%

These sequences were tested against T9, Tie2(h) (Homo sapiens, UniProt Q02763) (assay: Kinase Profiling Assay). Details: peptide 100 μM.
T9 construct: purchased Millipore
Format: biochemical
How it was run: as §1

Point of comparison: KAFAKLAARLYRKALARQLGVAA [MMI-0400], “% activity” value 21%. Against it:
- FAKLAARLYRKALARQLGVAA [MMI-0300] — higher, 26%
- HRRIKAWLKKIKALARQLGVAA (Mammal) [MMI-0500] — higher, 22%
- YARAAARQARAKALARQLGVAA [MMI-0100] — higher, 28%
- YARAAARQARAKALNRQLGVA (Mammal) [MMI-0200] — higher, 53%

These sequences were tested against VRK2(h) (Homo sapiens, UniProt Q86Y07) (assay: Kinase Profiling Assay). Details: peptide 100 μM.
Format: biochemical
How it was run: as §1

Sequence of VRK2(h) (Q86Y07 whole entry): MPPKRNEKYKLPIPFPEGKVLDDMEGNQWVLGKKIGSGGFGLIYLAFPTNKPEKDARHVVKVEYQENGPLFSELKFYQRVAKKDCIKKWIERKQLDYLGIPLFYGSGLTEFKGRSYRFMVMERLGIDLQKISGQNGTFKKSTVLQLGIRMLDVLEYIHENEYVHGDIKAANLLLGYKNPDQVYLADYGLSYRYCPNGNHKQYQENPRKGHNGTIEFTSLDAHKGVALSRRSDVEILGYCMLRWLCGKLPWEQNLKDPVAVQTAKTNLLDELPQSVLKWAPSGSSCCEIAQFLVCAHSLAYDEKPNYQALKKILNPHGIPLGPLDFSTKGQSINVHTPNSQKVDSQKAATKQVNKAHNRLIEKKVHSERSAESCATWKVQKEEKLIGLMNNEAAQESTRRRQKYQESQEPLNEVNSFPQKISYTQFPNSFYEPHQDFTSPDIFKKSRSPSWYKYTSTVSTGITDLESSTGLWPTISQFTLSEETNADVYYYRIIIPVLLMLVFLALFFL

Point of comparison: “HRRIKAWLKKIKALARQLGVAA (Mammal) [MMI-0500]”, “% activity” value 169%. Against it:
- FAKLAARLYRKALARQLGVAA [MMI-0300] — lower, 161%
- KAFAKLAARLYRKALARQLGVAA [MMI-0400] — higher, 185%

The sequences below were run against T10, mTOR/FKBP12(h) (Homo sapiens, UniProt P42345) (assay: Kinase Profiling Assay). Details: peptide 100 μM.
T10 construct: purchased Millipore
Format: biochemical
How it was run: as §1

T10 sequence (P42345 1362-2549 limits assumed): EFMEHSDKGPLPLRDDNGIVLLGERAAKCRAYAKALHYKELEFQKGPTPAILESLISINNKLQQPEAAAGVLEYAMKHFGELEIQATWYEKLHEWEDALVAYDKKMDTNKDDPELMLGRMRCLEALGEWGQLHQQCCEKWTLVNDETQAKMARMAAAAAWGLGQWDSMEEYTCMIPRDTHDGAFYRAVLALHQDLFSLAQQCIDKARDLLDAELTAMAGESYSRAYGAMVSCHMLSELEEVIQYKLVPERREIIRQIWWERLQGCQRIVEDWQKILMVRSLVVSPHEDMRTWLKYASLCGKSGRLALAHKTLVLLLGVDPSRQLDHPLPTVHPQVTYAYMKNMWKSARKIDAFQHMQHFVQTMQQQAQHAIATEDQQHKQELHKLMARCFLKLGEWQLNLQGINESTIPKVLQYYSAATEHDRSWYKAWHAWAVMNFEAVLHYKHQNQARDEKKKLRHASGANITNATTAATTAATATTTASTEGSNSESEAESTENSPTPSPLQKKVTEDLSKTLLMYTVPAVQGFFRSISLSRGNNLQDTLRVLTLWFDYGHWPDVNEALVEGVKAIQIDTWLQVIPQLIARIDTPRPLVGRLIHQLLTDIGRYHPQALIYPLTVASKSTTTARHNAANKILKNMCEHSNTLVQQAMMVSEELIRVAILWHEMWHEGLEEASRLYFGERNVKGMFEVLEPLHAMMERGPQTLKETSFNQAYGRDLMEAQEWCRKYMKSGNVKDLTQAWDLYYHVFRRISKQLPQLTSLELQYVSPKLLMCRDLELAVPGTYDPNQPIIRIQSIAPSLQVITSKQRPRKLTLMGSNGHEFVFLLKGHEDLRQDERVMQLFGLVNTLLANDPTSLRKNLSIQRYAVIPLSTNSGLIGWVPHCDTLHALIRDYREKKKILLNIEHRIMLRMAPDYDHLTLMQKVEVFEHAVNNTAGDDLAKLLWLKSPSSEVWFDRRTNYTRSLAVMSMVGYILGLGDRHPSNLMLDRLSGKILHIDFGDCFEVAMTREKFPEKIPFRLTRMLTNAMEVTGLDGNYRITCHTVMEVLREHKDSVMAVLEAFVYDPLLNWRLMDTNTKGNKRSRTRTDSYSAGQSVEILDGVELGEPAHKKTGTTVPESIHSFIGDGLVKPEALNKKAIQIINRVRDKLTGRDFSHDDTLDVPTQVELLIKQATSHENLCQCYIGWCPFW

Point of comparison: “HRRIKAWLKKIKALARQLGVAA (Mammal) [MMI-0500]”, “% activity” value 140%. Against it:
- FAKLAARLYRKALARQLGVAA [MMI-0300] — higher, 145%
- KAFAKLAARLYRKALARQLGVAA [MMI-0400] — lower, 125%
- YARAAARQARAKALNRQLGVA (Mammal) [MMI-0200] — lower, 118%

The sequences below were run against T11, p70S6K(h) (Homo sapiens, UniProt P23443) (assay: Kinase Profiling Assay). Details: peptide 100 μM.
T11 construct: purchased Millipore
Format: biochemical
How it was run: as §1

T11 sequence (P23443 whole entry): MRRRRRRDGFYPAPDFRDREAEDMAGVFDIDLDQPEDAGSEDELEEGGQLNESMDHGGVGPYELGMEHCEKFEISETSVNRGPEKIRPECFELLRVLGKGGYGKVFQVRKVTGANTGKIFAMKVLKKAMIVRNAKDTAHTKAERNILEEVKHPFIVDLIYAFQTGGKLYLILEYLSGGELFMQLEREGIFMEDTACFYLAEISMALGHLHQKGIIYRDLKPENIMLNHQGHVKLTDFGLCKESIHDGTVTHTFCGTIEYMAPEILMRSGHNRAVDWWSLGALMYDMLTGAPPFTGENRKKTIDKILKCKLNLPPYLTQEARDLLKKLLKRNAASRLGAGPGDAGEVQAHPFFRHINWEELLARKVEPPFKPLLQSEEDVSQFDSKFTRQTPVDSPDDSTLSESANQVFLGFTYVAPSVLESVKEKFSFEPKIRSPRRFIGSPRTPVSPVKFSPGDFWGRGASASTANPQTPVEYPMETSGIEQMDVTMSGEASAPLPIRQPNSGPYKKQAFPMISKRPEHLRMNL

Point of comparison: YARAAARQARAKALARQLGVAA [MMI-0100], “% activity” value 89%. Against it:
- FAKLAARLYRKALARQLGVAA [MMI-0300] — lower, 35%
- HRRIKAWLKKIKALARQLGVAA (Mammal) [MMI-0500] — lower, 3%
- KAFAKLAARLYRKALARQLGVAA [MMI-0400] — lower, 33%
- YARAAARQARAKALNRQLGVA (Mammal) [MMI-0200] — lower, 84%

From patent US20150258192A1, “COMPOSITIONS AND METHODS FOR PREVENTING OR TREATING CHRONIC LUNG ALLOGRAFT DYSFUNCTION (CLAD) AND IDIOPATHIC PULMONARY FIBROSIS (IPF)” (priority 2014, published 2015)
